Measured values reported in patent US20030068675, “Position dependent recognition of GNN nucleotide triplets by zinc fingers” (published 2003).
Where a chain is given by its changes, count along the chain named.

Experiments:
Test in all cases: EMSA
Settings in all cases: tags: MBP fusion
ZFP SBS#385 = molecular target: T1, ZFP SBS#385 (synthetic)
T1 chain: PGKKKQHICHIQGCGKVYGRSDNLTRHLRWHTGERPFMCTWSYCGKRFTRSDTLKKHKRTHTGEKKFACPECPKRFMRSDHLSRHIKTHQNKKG
Protocol: (§1) Affinity is measured by titrating purified protein against a fixed amount of labeled double-stranded oligonucleotide target. The target typically comprises the natural binding site sequence flanked by the 3 bp found in the natural sequence and additional, constant flanking sequences. The natural binding site is typically 9 bp for a three-finger protein and 2×9 bp +intervening bases for a six finger ZFP. […] For the assay the target is added at a concentration of 1 nM or lower (the actual concentration is kept at least 10-fold lower than the expected dissociation constant), purified ZFPs are added at various concentrations, and the reaction is allowed to equilibrate for at least 45 min. In addition the reaction mixture also contains 10 mM Tris (pH 7.5), 100 mM KCl, 1 mM MgCl2, 0.1 mM ZnCl2, 5 mM DTT, 10% glycerol, 0.02% BSA. (NB: in earlier assays poly d(IC) was also added at […].) The equilibrated reactions are loaded onto a 10% polyacrylamide gel, which has been pre-run for 45 min in Tris/glycine buffer, then bound and unbound labeled target is resolved by electrophoresis at 150V.

ZFP SBS#386 = molecular target: T2, ZFP SBS#386 (synthetic, UniProt P08047)
T2 chain: T1 chain with T53E, K55Q, K56R
Protocol: as §1

ZFP SBS#493 = molecular target: T3, ZFP SBS#493 (synthetic, UniProt P08047)
T3 chain: T1 chain with N23T, T25K, R26K, T53S, K55A, K56R
Protocol: as §1

ZFP SBS#514 = molecular target: T4, ZFP SBS#514 (synthetic)
T4 chain: T1 chain with N23A, T53A, K55A, K56R, H81N, S83T, R84T
Protocol: as §1

ZFP SBS#494 = molecular target: T5, ZFP SBS#494 (synthetic)
T5 chain: T1 chain with T53N, K55T, K56R, R78D, S79R, D80S, H81S, S83T
Protocol: as §1

ZFP SBS#379 = molecular target: T6, ZFP SBS#379 (synthetic)
T6 chain: T1 chain with T53N, K55T, K56R, R78E, S79R, D80G, H81T, S83A
Protocol: as §1

ZFP SBS#378 = molecular target: T7, ZFP SBS#378 (synthetic)
T7 chain: T1 chain with T53N, K55T, K56R, R78D, S79R, D80S, H81S, S83T
Protocol: as §1

ZFP SBS#512 = ZFP SBS#512 (synthetic)
Chain of ZFP SBS#512 (synthetic) (chain, as listed by the source): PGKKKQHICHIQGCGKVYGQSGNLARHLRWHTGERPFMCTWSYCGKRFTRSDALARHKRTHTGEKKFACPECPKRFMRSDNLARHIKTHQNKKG
Protocol: as §1

ZFP SBS#513 = ZFP SBS#513 (synthetic)
Chain of ZFP SBS#513 (synthetic) (chain, as listed by the source): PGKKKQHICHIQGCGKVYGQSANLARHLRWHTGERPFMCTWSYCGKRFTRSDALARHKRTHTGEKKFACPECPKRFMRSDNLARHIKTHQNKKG
Protocol: as §1

ZFP SBS#413 = ZFP SBS#413 (synthetic)
Chain of ZFP SBS#413 (synthetic) (chain, as listed by the source): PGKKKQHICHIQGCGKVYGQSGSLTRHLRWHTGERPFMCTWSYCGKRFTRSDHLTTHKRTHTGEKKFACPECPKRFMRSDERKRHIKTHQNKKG
Protocol: as §1

ZFP SBS#501 = molecular target: T8, ZFP SBS#501 (synthetic)
T8 chain: T1 chain with R20N, S21R, D22A, N23T, T25A, T53H, K55S, K56R, H81A, S83A
Protocol: as §1

ZFP SBS#507 = molecular target: T9, ZFP SBS#507 (synthetic)
T9 chain: T1 chain with T25A, R50Q, S51R, D52S, T53A, K55A, K56R, H81N, S83A
Protocol: as §1

ZFP SBS#508 = molecular target: T10, ZFP SBS#508 (synthetic)
T10 chain: T1 chain with T25A, R50Q, D52A, K55A, K56R, H81N, S83A
Protocol: as §1

ZFP SBS#502 = ZFP SBS#502 (synthetic, UniProt P08047)
Chain of ZFP SBS#502 (P08047 other isoform, or with tags, fused parts or gaps): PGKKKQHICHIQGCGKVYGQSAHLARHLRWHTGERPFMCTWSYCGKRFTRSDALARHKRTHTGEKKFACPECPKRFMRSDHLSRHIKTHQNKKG
Protocol: as §1

ZFP SBS#390 = molecular target: T11, ZFP SBS#390 (synthetic)
T11 chain: T1 chain with N23T, T25K, R26K, R50Q, D52S, T53D, K55Q, H81A, S83A
Protocol: as §1

ZFP SBS#397 = ZFP SBS#397 (synthetic)
Chain of ZFP SBS#397 (synthetic) (chain, as listed by the source): as the sequence (P08047 other isoform, or with tags, fused parts or gaps) above, with A22G, H23D, A25T, R50Q, D52G, A53H, A55Q, H81T, S83K, R84K counted along it
Protocol: as §1

ZFP SBS#396 = ZFP SBS#396 (synthetic)
Chain of ZFP SBS#396 (synthetic) (chain, as listed by the source): as the sequence (P08047 other isoform, or with tags, fused parts or gaps) above, with A22G, H23S, A25T, R50Q, D52G, A53H, A55Q, H81T, S83K, R84K counted along it
Protocol: as §1

ZFP SBS#388 = ZFP SBS#388 (synthetic)
Chain of ZFP SBS#388 (synthetic) (chain, as listed by the source): as the sequence (P08047 other isoform, or with tags, fused parts or gaps) above, with A22G, H23D, A25T, A53N, R78D, S79R, D80S, S83A counted along it
Protocol: as §1

ZFP SBS#387 = ZFP SBS#387 (synthetic)
Chain of ZFP SBS#387 (synthetic) (chain, as listed by the source): as the sequence (P08047 other isoform, or with tags, fused parts or gaps) above, with A22G, H23S, A25T, A53N, R78D, S79R, D80S, S83A counted along it
Protocol: as §1

ZFP SBS#337 = ZFP SBS#337 (synthetic)
Chain of ZFP SBS#337 (synthetic) (chain, as listed by the source): as the sequence (P08047 other isoform, or with tags, fused parts or gaps) above, with Q20R, H23D, A25T, A53H, A55T, R78E, S79R, D80Q, S83A, R84T counted along it
Protocol: as §1

ZFP SBS#345 = ZFP SBS#345 (synthetic)
Protocol: as §1

ZFP SBS#338 = ZFP SBS#338 (synthetic)
Chain of ZFP SBS#338 (synthetic) (chain, as listed by the source): as the sequence (P08047 other isoform, or with tags, fused parts or gaps) above, with Q20R, H23D, A25T, A53H, A55T, R78E, S79R, S83R, R84T counted along it
Protocol: as §1

ZFP SBS#339 = ZFP SBS#339 (synthetic)
Chain of ZFP SBS#339 (synthetic) (chain, as listed by the source): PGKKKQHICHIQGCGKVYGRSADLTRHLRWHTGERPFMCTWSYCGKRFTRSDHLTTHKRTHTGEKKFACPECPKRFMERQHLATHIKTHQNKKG
Protocol: as §1

ZFP SBS#343 = ZFP SBS#343 (synthetic)
Protocol: as §1

ZFP SBS#346 = ZFP SBS#346 (synthetic)
Protocol: as §1

ZFP SBS#344 = ZFP SBS#344 (synthetic)
Chain of ZFP SBS#344 (synthetic) (chain, as listed by the source): as the sequence (P08047 other isoform, or with tags, fused parts or gaps) above, with A22G, H23S, A25T, A53H, A55T, R78E, S79R, S83R, R84T counted along it
Protocol: as §1

ZFP SBS#340 = molecular target: T12, ZFP SBS#340 (synthetic)
T12 chain: T1 chain with D22A, N23D, T53H, K55T, K56T, R78E, S79R, S83R, R84T
Protocol: as §1

ZFP SBS#509 = ZFP SBS#509 (synthetic)
Chain of ZFP SBS#509 (synthetic) (chain, as listed by the source): as the sequence (P08047 other isoform, or with tags, fused parts or gaps) above, with Q20R, A22D, A25T, R26T, R78D, S79R, D80S, H81A, S83A counted along it
Protocol: as §1

ZFP SBS#410 = molecular target: T13, ZFP SBS#410 (synthetic)
T13 chain: T1 chain with N23A, R50Q, D52G, T53N, K55T, K56R, R78Q, D80G, H81S, S83T
Protocol: as §1

ZFP SBS#400 = molecular target: T14, ZFP SBS#400 (synthetic)
T14 chain: T1 chain with N23A, T25A, T53S, K55A, K56R, R78Q, D80G, H81D, S83R, R84T
Protocol: as §1

ZFP SBS#510 = ZFP SBS#510 (synthetic)
Chain of ZFP SBS#510 (synthetic) (chain, as listed by the source): as the sequence (P08047 other isoform, or with tags, fused parts or gaps) above, with A22G, H23N, A53N, R78N, S79R, D80A, H81T, S83A counted along it
Protocol: as §1

ZFP SBS#511 = ZFP SBS#511 (synthetic)
Chain of ZFP SBS#511 (synthetic) (chain, as listed by the source): as the sequence (P08047 other isoform, or with tags, fused parts or gaps) above, with A22G, H23N, A53N, R78Q, D80S, H81A, S83A counted along it
Protocol: as §1

ZFP SBS#405 = molecular target: T15, ZFP SBS#405 (synthetic)
T15 chain: T1 chain with N23E, R50E, S51R, D52G, K55A, K56R, H81E, L82R, S83K
Protocol: as §1

ZFP SBS#406 = molecular target: T16, ZFP SBS#406 (synthetic)
T16 chain: T1 chain with N23E, R50D, S51R, D52S, T53S, K55T, K56R, H81E, L82R, S83K
Protocol: as §1

ZFP SBS#408 = molecular target: T17, ZFP SBS#408 (synthetic)
T17 chain: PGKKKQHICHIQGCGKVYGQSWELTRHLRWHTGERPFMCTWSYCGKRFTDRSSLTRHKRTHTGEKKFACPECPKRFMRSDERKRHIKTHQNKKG
Protocol: as §1

ZFP SBS#407 = molecular target: T18, ZFP SBS#407 (synthetic)
T18 chain: T17 chain with D50E, S52G, S53T, T55A
Protocol: as §1

ZFP SBS#409 = molecular target: T19, ZFP SBS#409 (synthetic)
T19 chain: T17 chain with W22G, E23S, D50E, S52G, S53T, T55A
Protocol: as §1

ZFP SBS#412 = ZFP SBS#412 (synthetic)
Chain of ZFP SBS#412 (synthetic) (chain, as listed by the source): as the sequence (P08047 other isoform, or with tags, fused parts or gaps) above, with A22G, H23S, A25T, A53H, A55T, R56T, H81E, L82R, S83K counted along it
Protocol: as §1

B1: GGGGCGGAGC (dsDNA)
DNA 1: GGGGCGGAGC
DNA 2: GCTCCGCCCC
- Kd (ZFP SBS#385): 1.2 nM
- Kd (ZFP SBS#386): 0.4 nM

B2: GGGGTGGCGG (dsDNA)
DNA 1: GGGGTGGCGG
DNA 2: CCGCCACCCC
- Kd (ZFP SBS#493): 300 nM

B3: TAGGTGGTGG (dsDNA)
DNA 1: TAGGTGGTGG
DNA 2: CCACCACCTA
- Kd (ZFP SBS#514): 10 nM

B4: GCCGAGGAGA (dsDNA)
DNA 1: GCCGAGGAGA
DNA 2: TCTCCTCGGC
- Kd (ZFP SBS#494): 90 nM
- Kd (ZFP SBS#379): 3 nM
- Kd (ZFP SBS#378): 31 nM

B5: GAGGTGGAAG (dsDNA)
DNA 1: GAGGTGGAAG
DNA 2: CTTCCACCTC
- Kd (ZFP SBS#512): 10 nM
- Kd (ZFP SBS#513): 1.5 nM

B6: GCGTGGGCA (dsDNA)
DNA 1: GCGTGGGCA
DNA 2: TGCCCACGC
- Kd (ZFP SBS#413): 5 nM

B7: GTGGGGGTT (dsDNA)
DNA 1: GTGGGGGTT
DNA 2: AACCCCCAC
- Kd (ZFP SBS#501): 8 nM

B8: GAGGTAGAGG (dsDNA)
DNA 1: GAGGTAGAGG
DNA 2: CCTCTACCTC
- Kd (ZFP SBS#507): 10 nM
- Kd (ZFP SBS#508): 10 nM

B9: GGGGTGGGA (dsDNA)
DNA 1: GGGGTGGGA
DNA 2: TCCCACCCC
- Kd (ZFP SBS#502): 60 nM

B10: GTGGCAGCGG (dsDNA)
DNA 1: GTGGCAGCGG
DNA 2: CCGCTGCCAC
- Kd (ZFP SBS#390): 20 nM

B11: GCGGGAGCAG (dsDNA)
DNA 1: GCGGGAGCAG
DNA 2: CTGCTCCCGC
- Kd (ZFP SBS#397): 25 nM
- Kd (ZFP SBS#396): 18.8 nM

B12: GGCGAGGCAA (dsDNA)
DNA 1: GGCGAGGCAA
DNA 2: TTGCCTCGCC
- Kd (ZFP SBS#388): 28 nM
- Kd (ZFP SBS#387): 2.5 nM

B13: TGCGGGGCAA (dsDNA)
DNA 1: TGCGGGGCAA
DNA 2: TTGCCCCGCA
- Kd (ZFP SBS#337): 24 nM
- Kd (ZFP SBS#345): 96 nM
- Kd (ZFP SBS#338): 8 nM
- Kd (ZFP SBS#339): 64 nM
- Kd (ZFP SBS#343): 8 nM
- Kd (ZFP SBS#346): 64 nM
- Kd (ZFP SBS#344): 6 nM
- Kd (ZFP SBS#340): 48 nM

B14: GTCGTGTGGC (dsDNA)
DNA 1: GTCGTGTGGC
DNA 2: GCCACACGAC
- Kd (ZFP SBS#509): 100 nM

B15: GCAGAAGTC (dsDNA)
DNA 1: GCAGAAGTC
DNA 2: GACTTCTGC
- Kd (ZFP SBS#410): 3 nM

B16: TCAGTGGTGG (dsDNA)
DNA 1: TCAGTGGTGG
DNA 2: CCACCACTGA
- Kd (ZFP SBS#400): 40 nM

B17: GTTGAGGAAG (dsDNA)
DNA 1: GTTGAGGAAG
DNA 2: CTTCCTCAAC
- Kd (ZFP SBS#510): 100 nM
- Kd (ZFP SBS#511): 100 nM

B18: GCGGCCGCA (dsDNA)
DNA 1: GCGGCCGCA
DNA 2: TGCGGCCGC
- Kd (ZFP SBS#405): 110 nM
- Kd (ZFP SBS#406): 110 nM
- Kd (ZFP SBS#408): 380 nM
- Kd (ZFP SBS#407): 410 nM
- Kd (ZFP SBS#409): 50 nM

B19: GCGTGGGCG (dsDNA)
DNA 1: GCGTGGGCG
DNA 2: CGCCCACGC
- Kd (ZFP SBS#412): 5 nM
